Reference: publication PMC3020078
“And” between values parts separate entries of the source, which are not always exact repeats. Identical values can stand only once.

Assays:
[1] = target: cpMVP vaults (MVP with an N-terminal cysteine rich peptide); experiment: SAXS
[2] = target: cpMVPvsvg vaults (MVP with an N-terminal cysteine rich peptide and a C-terminal VSVG tag); experiment: co-IP

Row | Substance | percent of the protein mass as full vaults [1] | stoichiometry N (HisT7MVP:cpMVPvsvg) [2]
1 | cpMVP vaults (MVP with an N-terminal cysteine rich peptide) (natural protein) | 46% and 49% | –
2 | HisT7MVP vaults (MVP with N-terminal T7 tag) (from UniProt Q62667 1-861) (natural protein) | – | 0.8
